This passage reports Kd results from article PMC8795569.

The experiment deals with HA-APP (full-length, APP695 spliced isoform) (UniProt P05067). Nature of the experiment: ELISA. In general terms: ELISA stands for enzyme-linked immunosorbent assay.

For “MDGA1 MAM-Fc (recombinant MDGA1 MAM domain fused to Fc) (from UniProt Q8NFP4 751-918) (Fc fusion)”, the Kd is 41.3 nM.
